In article PMC4339890 (Nature Communications, 2015):

Target: the molecule itself
Assay: not stated; PAXX 1-145 in solution (Supplementary Fig. 2)

B1: PAXX N-terminal fragment (1–145) (domain or fragment, human, UniProt Q9BUH6 1-145, looked up)
chain: MDPLSPPLCTLPPGPEPPRFVCYCEGEESGEGDRGGFNLYVTDAAELWSTCFTPDSLAALKARFGLSAAEDITPRFRAACEQQAVALTLQEDRASLTLSGGPSALAFDLSKVPGPEAAPRLRALTLGLAKRVWSLERRLAAAEET
notes: A SeMet-labelled double mutant L57M/L105M of the same limits was used for phasing only; source: E. coli (pETDuet-1), purified (nickel beads, HiTrap Q, Superdex 200 gel filtration)
stoichiometry N: 2
